Measured values as given in patent US20210388087A1 (Chugai, published 2021).

B1: H183/L072 VL R29T (antibody, name in Kabat numbering, V domains shown)
VH: QVQLVESGGGLVQPGRSLRLSCAASGFTFSNAWMHWVRQAPGKGLEWVAQIKDKGNAYAAYYAPSVKGRFTISRDDSKNSIYLQMNSLKTEDTAVYYCHYVHYASASTVLPAFGVDAWGQGTTVTVSS
VL: DIVMTQSPLSLPVTPGEPASISCQASQELVHMNTNTYLHWYQQKPGQAPRLLIYKVSNRFPGVPDRFSGSGSGTDFTLKISRVEAEDVGVYYCAQGTSVPFTFGQGTKLEIK
notes: Dual-Ig
B2: H183/L072 VL R54L (antibody, name in Kabat numbering, V domains shown)
VH: QVQLVESGGGLVQPGRSLRLSCAASGFTFSNAWMHWVRQAPGKGLEWVAQIKDKGNAYAAYYAPSVKGRFTISRDDSKNSIYLQMNSLKTEDTAVYYCHYVHYASASTVLPAFGVDAWGQGTTVTVSS
VL: DIVMTQSPLSLPVTPGEPASISCQASQELVHMNRNTYLHWYQQKPGQAPRLLIYKVSNLFPGVPDRFSGSGSGTDFTLKISRVEAEDVGVYYCAQGTSVPFTFGQGTKLEIK
notes: Dual-Ig
B3: H183/L072 VL R54V (antibody, name in Kabat numbering, V domains shown)
VH: QVQLVESGGGLVQPGRSLRLSCAASGFTFSNAWMHWVRQAPGKGLEWVAQIKDKGNAYAAYYAPSVKGRFTISRDDSKNSIYLQMNSLKTEDTAVYYCHYVHYASASTVLPAFGVDAWGQGTTVTVSS
VL: DIVMTQSPLSLPVTPGEPASISCQASQELVHMNRNTYLHWYQQKPGQAPRLLIYKVSNVFPGVPDRFSGSGSGTDFTLKISRVEAEDVGVYYCAQGTSVPFTFGQGTKLEIK
notes: Dual-Ig
B4: H183/L072 VL R29Y (antibody, name in Kabat numbering, V domains shown)
VH: QVQLVESGGGLVQPGRSLRLSCAASGFTFSNAWMHWVRQAPGKGLEWVAQIKDKGNAYAAYYAPSVKGRFTISRDDSKNSIYLQMNSLKTEDTAVYYCHYVHYASASTVLPAFGVDAWGQGTTVTVSS
VL: DIVMTQSPLSLPVTPGEPASISCQASQELVHMNYNTYLHWYQQKPGQAPRLLIYKVSNRFPGVPDRFSGSGSGTDFTLKISRVEAEDVGVYYCAQGTSVPFTFGQGTKLEIK
notes: Dual-Ig
B5: H183/L072 VL R54S (antibody, name in Kabat numbering, V domains shown)
VH: QVQLVESGGGLVQPGRSLRLSCAASGFTFSNAWMHWVRQAPGKGLEWVAQIKDKGNAYAAYYAPSVKGRFTISRDDSKNSIYLQMNSLKTEDTAVYYCHYVHYASASTVLPAFGVDAWGQGTTVTVSS
VL: DIVMTQSPLSLPVTPGEPASISCQASQELVHMNRNTYLHWYQQKPGQAPRLLIYKVSNSFPGVPDRFSGSGSGTDFTLKISRVEAEDVGVYYCAQGTSVPFTFGQGTKLEIK
notes: Dual-Ig
B6: H183/L072 VL R54P (antibody, name in Kabat numbering, V domains shown)
VH: QVQLVESGGGLVQPGRSLRLSCAASGFTFSNAWMHWVRQAPGKGLEWVAQIKDKGNAYAAYYAPSVKGRFTISRDDSKNSIYLQMNSLKTEDTAVYYCHYVHYASASTVLPAFGVDAWGQGTTVTVSS
VL: DIVMTQSPLSLPVTPGEPASISCQASQELVHMNRNTYLHWYQQKPGQAPRLLIYKVSNPFPGVPDRFSGSGSGTDFTLKISRVEAEDVGVYYCAQGTSVPFTFGQGTKLEIK
notes: Dual-Ig
B7: H183/L072 VL R54G (antibody, name in Kabat numbering, V domains shown)
VH: QVQLVESGGGLVQPGRSLRLSCAASGFTFSNAWMHWVRQAPGKGLEWVAQIKDKGNAYAAYYAPSVKGRFTISRDDSKNSIYLQMNSLKTEDTAVYYCHYVHYASASTVLPAFGVDAWGQGTTVTVSS
VL: DIVMTQSPLSLPVTPGEPASISCQASQELVHMNRNTYLHWYQQKPGQAPRLLIYKVSNGFPGVPDRFSGSGSGTDFTLKISRVEAEDVGVYYCAQGTSVPFTFGQGTKLEIK
notes: Dual-Ig
B8: H183/L072 VL R54T (antibody, name in Kabat numbering, V domains shown)
VH: QVQLVESGGGLVQPGRSLRLSCAASGFTFSNAWMHWVRQAPGKGLEWVAQIKDKGNAYAAYYAPSVKGRFTISRDDSKNSIYLQMNSLKTEDTAVYYCHYVHYASASTVLPAFGVDAWGQGTTVTVSS
VL: DIVMTQSPLSLPVTPGEPASISCQASQELVHMNRNTYLHWYQQKPGQAPRLLIYKVSNTFPGVPDRFSGSGSGTDFTLKISRVEAEDVGVYYCAQGTSVPFTFGQGTKLEIK
notes: Dual-Ig
B9: H183/L072 VL R54F (antibody, name in Kabat numbering, V domains shown)
VH: QVQLVESGGGLVQPGRSLRLSCAASGFTFSNAWMHWVRQAPGKGLEWVAQIKDKGNAYAAYYAPSVKGRFTISRDDSKNSIYLQMNSLKTEDTAVYYCHYVHYASASTVLPAFGVDAWGQGTTVTVSS
VL: DIVMTQSPLSLPVTPGEPASISCQASQELVHMNRNTYLHWYQQKPGQAPRLLIYKVSNFFPGVPDRFSGSGSGTDFTLKISRVEAEDVGVYYCAQGTSVPFTFGQGTKLEIK
notes: Dual-Ig
B10: H183/L072 VL R54I (antibody, name in Kabat numbering, V domains shown)
VH: QVQLVESGGGLVQPGRSLRLSCAASGFTFSNAWMHWVRQAPGKGLEWVAQIKDKGNAYAAYYAPSVKGRFTISRDDSKNSIYLQMNSLKTEDTAVYYCHYVHYASASTVLPAFGVDAWGQGTTVTVSS
VL: DIVMTQSPLSLPVTPGEPASISCQASQELVHMNRNTYLHWYQQKPGQAPRLLIYKVSNIFPGVPDRFSGSGSGTDFTLKISRVEAEDVGVYYCAQGTSVPFTFGQGTKLEIK
notes: Dual-Ig
B11: H183/L072 VL R54H (antibody, name in Kabat numbering, V domains shown)
VH: QVQLVESGGGLVQPGRSLRLSCAASGFTFSNAWMHWVRQAPGKGLEWVAQIKDKGNAYAAYYAPSVKGRFTISRDDSKNSIYLQMNSLKTEDTAVYYCHYVHYASASTVLPAFGVDAWGQGTTVTVSS
VL: DIVMTQSPLSLPVTPGEPASISCQASQELVHMNRNTYLHWYQQKPGQAPRLLIYKVSNHFPGVPDRFSGSGSGTDFTLKISRVEAEDVGVYYCAQGTSVPFTFGQGTKLEIK
notes: Dual-Ig
B12: H183/L072 VL R29V (antibody, name in Kabat numbering, V domains shown)
VH: QVQLVESGGGLVQPGRSLRLSCAASGFTFSNAWMHWVRQAPGKGLEWVAQIKDKGNAYAAYYAPSVKGRFTISRDDSKNSIYLQMNSLKTEDTAVYYCHYVHYASASTVLPAFGVDAWGQGTTVTVSS
VL: DIVMTQSPLSLPVTPGEPASISCQASQELVHMNVNTYLHWYQQKPGQAPRLLIYKVSNRFPGVPDRFSGSGSGTDFTLKISRVEAEDVGVYYCAQGTSVPFTFGQGTKLEIK
notes: Dual-Ig
B13: H183/L072 VL R54Q (antibody, name in Kabat numbering, V domains shown)
VH: QVQLVESGGGLVQPGRSLRLSCAASGFTFSNAWMHWVRQAPGKGLEWVAQIKDKGNAYAAYYAPSVKGRFTISRDDSKNSIYLQMNSLKTEDTAVYYCHYVHYASASTVLPAFGVDAWGQGTTVTVSS
VL: DIVMTQSPLSLPVTPGEPASISCQASQELVHMNRNTYLHWYQQKPGQAPRLLIYKVSNQFPGVPDRFSGSGSGTDFTLKISRVEAEDVGVYYCAQGTSVPFTFGQGTKLEIK
notes: Dual-Ig
B14: H183/L072 VL R54W (antibody, name in Kabat numbering, V domains shown)
VH: QVQLVESGGGLVQPGRSLRLSCAASGFTFSNAWMHWVRQAPGKGLEWVAQIKDKGNAYAAYYAPSVKGRFTISRDDSKNSIYLQMNSLKTEDTAVYYCHYVHYASASTVLPAFGVDAWGQGTTVTVSS
VL: DIVMTQSPLSLPVTPGEPASISCQASQELVHMNRNTYLHWYQQKPGQAPRLLIYKVSNWFPGVPDRFSGSGSGTDFTLKISRVEAEDVGVYYCAQGTSVPFTFGQGTKLEIK
notes: Dual-Ig
B15: H183/L072 VL R29W (antibody, name in Kabat numbering, V domains shown)
VH: QVQLVESGGGLVQPGRSLRLSCAASGFTFSNAWMHWVRQAPGKGLEWVAQIKDKGNAYAAYYAPSVKGRFTISRDDSKNSIYLQMNSLKTEDTAVYYCHYVHYASASTVLPAFGVDAWGQGTTVTVSS
VL: DIVMTQSPLSLPVTPGEPASISCQASQELVHMNWNTYLHWYQQKPGQAPRLLIYKVSNRFPGVPDRFSGSGSGTDFTLKISRVEAEDVGVYYCAQGTSVPFTFGQGTKLEIK
notes: Dual-Ig
B16: H183/L072 VL R54A (antibody, name in Kabat numbering, V domains shown)
VH: QVQLVESGGGLVQPGRSLRLSCAASGFTFSNAWMHWVRQAPGKGLEWVAQIKDKGNAYAAYYAPSVKGRFTISRDDSKNSIYLQMNSLKTEDTAVYYCHYVHYASASTVLPAFGVDAWGQGTTVTVSS
VL: DIVMTQSPLSLPVTPGEPASISCQASQELVHMNRNTYLHWYQQKPGQAPRLLIYKVSNAFPGVPDRFSGSGSGTDFTLKISRVEAEDVGVYYCAQGTSVPFTFGQGTKLEIK
notes: Dual-Ig
B17: H183/L072 VL R54K (antibody, name in Kabat numbering, V domains shown)
VH: QVQLVESGGGLVQPGRSLRLSCAASGFTFSNAWMHWVRQAPGKGLEWVAQIKDKGNAYAAYYAPSVKGRFTISRDDSKNSIYLQMNSLKTEDTAVYYCHYVHYASASTVLPAFGVDAWGQGTTVTVSS
VL: DIVMTQSPLSLPVTPGEPASISCQASQELVHMNRNTYLHWYQQKPGQAPRLLIYKVSNKFPGVPDRFSGSGSGTDFTLKISRVEAEDVGVYYCAQGTSVPFTFGQGTKLEIK
notes: Dual-Ig
B18: H183/L072 VL S26D (antibody, name in Kabat numbering, V domains shown)
VH: QVQLVESGGGLVQPGRSLRLSCAASGFTFSNAWMHWVRQAPGKGLEWVAQIKDKGNAYAAYYAPSVKGRFTISRDDSKNSIYLQMNSLKTEDTAVYYCHYVHYASASTVLPAFGVDAWGQGTTVTVSS
VL: DIVMTQSPLSLPVTPGEPASISCQADQELVHMNRNTYLHWYQQKPGQAPRLLIYKVSNRFPGVPDRFSGSGSGTDFTLKISRVEAEDVGVYYCAQGTSVPFTFGQGTKLEIK
notes: Dual-Ig
B19: H183/L072 VL R54E (antibody, name in Kabat numbering, V domains shown)
VH: QVQLVESGGGLVQPGRSLRLSCAASGFTFSNAWMHWVRQAPGKGLEWVAQIKDKGNAYAAYYAPSVKGRFTISRDDSKNSIYLQMNSLKTEDTAVYYCHYVHYASASTVLPAFGVDAWGQGTTVTVSS
VL: DIVMTQSPLSLPVTPGEPASISCQASQELVHMNRNTYLHWYQQKPGQAPRLLIYKVSNEFPGVPDRFSGSGSGTDFTLKISRVEAEDVGVYYCAQGTSVPFTFGQGTKLEIK
notes: Dual-Ig
B20: H183/L072 VL R54M (antibody, name in Kabat numbering, V domains shown)
VH: QVQLVESGGGLVQPGRSLRLSCAASGFTFSNAWMHWVRQAPGKGLEWVAQIKDKGNAYAAYYAPSVKGRFTISRDDSKNSIYLQMNSLKTEDTAVYYCHYVHYASASTVLPAFGVDAWGQGTTVTVSS
VL: DIVMTQSPLSLPVTPGEPASISCQASQELVHMNRNTYLHWYQQKPGQAPRLLIYKVSNMFPGVPDRFSGSGSGTDFTLKISRVEAEDVGVYYCAQGTSVPFTFGQGTKLEIK
notes: Dual-Ig
B21: H183/L072 VL R54D (antibody, name in Kabat numbering, V domains shown)
VH: QVQLVESGGGLVQPGRSLRLSCAASGFTFSNAWMHWVRQAPGKGLEWVAQIKDKGNAYAAYYAPSVKGRFTISRDDSKNSIYLQMNSLKTEDTAVYYCHYVHYASASTVLPAFGVDAWGQGTTVTVSS
VL: DIVMTQSPLSLPVTPGEPASISCQASQELVHMNRNTYLHWYQQKPGQAPRLLIYKVSNDFPGVPDRFSGSGSGTDFTLKISRVEAEDVGVYYCAQGTSVPFTFGQGTKLEIK
notes: Dual-Ig

Target: T1, Human CD137 ECD (human)
T1 construct: entry includes C-terminal His-tag and biotin acceptor peptide; also called human CD137 extracellular domain; 4-1BB
Experiment: Biacore SPR, vs parent H183/L072

T1 sequence (chain, as listed by the source limits assumed): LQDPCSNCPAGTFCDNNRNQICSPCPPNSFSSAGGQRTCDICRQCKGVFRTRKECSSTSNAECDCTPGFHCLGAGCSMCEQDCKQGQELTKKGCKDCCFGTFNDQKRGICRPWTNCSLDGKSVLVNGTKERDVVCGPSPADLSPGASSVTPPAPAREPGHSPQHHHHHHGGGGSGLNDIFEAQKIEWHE

fold change of affinity	Binder
0.8 fold	B1
0.9 fold	B2
1.3 fold	B3
0.6 fold	B4
0.9 fold	B5
0.9 fold	B6
0.9 fold	B7
2.5 fold	B8
0.3 fold	B9
1 fold	B10
0.6 fold	B11
0.3 fold	B12
0.8 fold	B13
0.4 fold	B14
0.6 fold	B15
0.9 fold	B16
1 fold	B17
0.8 fold	B18
0.6 fold	B19
0.5 fold	B20
0.3 fold	B21
